# B1: LH1: recombinant human lysyl hydroxylase isoform 1, His-tagged (protein, listed as Homo sapiens)
# chain: MRPLLLLALLGWLLLAEAKGDAKPEDNLLVLTVATKETEGFRRFKRSAQFFNYKIQALGLGEDWNVEKGTSAGGGQKVRLLKKALEKHADKEDLVILFTDSYDVLFASGPRELLKKFRQARSQVVFSAEELIYPDRRLETKYPVVSDGKRFLGSGGFIGYAPNLSKLVAEWEGQDSDSDQLFYTKIFLDPEKREQINITLDHRCRIFQNLDGALDEVVLKFEMGHVRARNLAYDTLPVLIHGNGPTKLQLNYLGNYIPRFWTFETGCTVCDEGLRSLKGIGDEALPTVLVGVFIEQPTPFVSLFFQRLLRLHYPQKHMRLFIHNHEQHHKAQVEEFLAQHGSEYQSVKLVGPEVRMANADARNMGADLCRQDRSCTYYFSVDADVALTEPNSLRLLIQQNKNVIAPLMTRHGRLWSNFWGALSADGYYARSEDYVDIVQGRRVGVWNVPYISNIYLIKGSALRGELQSSDLFHHSKLDPDMAFCANIRQQDVFMFLTNRHTLGHLLSLDSYRTTHLHNDLWEVFSNPEDWKEKYIHQNYTKALAGKLVETPCPDVYWFPIFTEVACDELVEEMEHFGQWSLGNNKDNRIQGGYENVPTIDIHMNQIGFEREWHKFLLEYIAPMTEKLYPGYYTRAQFDLAFVVRYKPDEQPSLMPHHDASTFTINIALNRVGVDYEGGGCRFLRYNCSIRAPRKGWTLMHPGRLTHYHEGLPTTRGTRYIAVSFVDP
# modifications: His6 tag
# notes: recombinant human lysyl hydroxylase isoform 1, His-tagged
# B2: Mutation 4: human LH3 mutant, amino acids 25-668 normal, amino acids 669-698 modified (protein, listed as Homo sapiens)
# chain: SDRPRGRDPVNPEKLLVITVATAETEGYLRFLRSAEFFNYTVRTLGLGEEWRGGDVARTVGGGQKVRWLKKEMEKYADREDMIIMFVDSYDVILAGSPTELLKKFVQSGSRLLFSAESFCWPEWGLAEQYPEVGTGKRFLNSGGFIGFATTIHQIVRQWKYKDDDDDQLFYTRLYLDPGLREKLSLNLDHKSRIFQNLNGALDEVVLKFDRNRVRIRNVAYDTLPIVVHGNGPTKLQLNYLGNYVPNGWTPEGGCGFCNQDRRTLPGGQPPPRVFLAVFVEQPTPFLPRFLQRLLLLDYPPDRVTLFLHNNEVFHEPHIADSWPQLQDHFSAVKLVGPEEALSPGEARDMAMDLCRQDPECEFYFSLDADAVLTNLQTLRILIEENRKVIAPMLSRHGKLWSNFWGALSPDEYYARSEDYVELVQRKRVGVWNVPYISQAYVIRGDTLRMELPQRDVFSGSDTDPDMAFCKSFRDKGIFLHLSNQHEFGRLLATSRYDTEHLHPDLWQIFDNPVDWKEQYIHENYSRALEGEGIVEQPCPDVYWFPLLSEQMCDELVAEMEHYGQWSGGRHEDSRLAGGYENVPTVDIHMKQVGYEDQWLQLLRTYVGPMTESLFPGYHTKARAVMNFVVRYRPDEQPSLRPHHAHPPSPSTLPSTTRAWTMREVAAASCATTV
# B3: LH2a: recombinant human lysyl hydroxylase isoform 2, alternatively spliced form a (protein)
# chain: ADSEKPSSIPTDKLLVITVATKESDGFHRFMQSAKYFNYTVKVLGQGEEWRGGDGINSIGGGQKVRLMKEVMEHYADQDDLVVMFTECFDVIFAGGPEEVLKKFQKANHKVVFAADGILWPDKRLADKYPVVHIGKRYLNSGGFIGYAPYVNRIVQQWNLQDNDDDQLFYTKVYIDPLKREAINITLDHKCKIFQTLNGAVDEVVLKFENGKARAKNTFYETLPVAINGNGPTKILLNYFGNYVPNSWTQDNGCTLCEFDTVDLSAVDVHPNVSIGVFIEQPTPFLPRFLDILLTLDYPKEALKLFIHNKEVYHEKDIKVFFDKAKHEIKTIKIVGPEENLSQAEARNMGMDFCRQDEKCDYYFSVDADVVLTNPRTLKILIEQNRKIIAPLVTRHGKLWSNFWGALSPDGYYARSEDYVDIVQGNRVGVWNVPYMANVYLIKGKTLRSEMNERNYFVRDKLDPDMALCRNAREMGVFMYISNRHEFGRLLSTANYNTSHYNNDLWQIFENPVDWKEKYINRDYSKIFTENIVEQPCPDVFWFPIFSEKACDELVEEMEHYGKWSGGKHHDSRISGGYENVPTDDIHMKQVDLENVWLDFIREFIAPVTLKVFAGYYTKGFALLNFVVKYSPERQRSLRPHHDASTFTINIALNNVGEDFQGGGCKFLRYNCSIESPRKGWSFMHPGRLTHLHEGLPVKNGTRYIAVSFIDP
# modifications: left off: small tags and cut ends
# notes: recombinant human lysyl hydroxylase isoform 2, alternatively spliced form a
# B4: Mutation 2: human LH3 mutant, amino acids 25-520 normal, amino acids 521-738 missing (protein, listed as Homo sapiens)
# chain: SDRPRGRDPVNPEKLLVITVATAETEGYLRFLRSAEFFNYTVRTLGLGEEWRGGDVARTVGGGQKVRWLKKEMEKYADREDMIIMFVDSYDVILAGSPTELLKKFVQSGSRLLFSAESFCWPEWGLAEQYPEVGTGKRFLNSGGFIGFATTIHQIVRQWKYKDDDDDQLFYTRLYLDPGLREKLSLNLDHKSRIFQNLNGALDEVVLKFDRNRVRIRNVAYDTLPIVVHGNGPTKLQLNYLGNYVPNGWTPEGGCGFCNQDRRTLPGGQPPPRVFLAVFVEQPTPFLPRFLQRLLLLDYPPDRVTLFLHNNEVFHEPHIADSWPQLQDHFSAVKLVGPEEALSPGEARDMAMDLCRQDPECEFYFSLDADAVLTNLQTLRILIEENRKVIAPMLSRHGKLWSNFWGALSPDEYYARSEDYVELVQRKRVGVWNVPYISQAYVIRGDTLRMELPQRDVFSGSDTDPDMAFCKSFRDKGIFLHLSNQHEFGRLLATSR
# B5: Mutation 1: human LH3 mutant, amino acids 25-231 normal, amino acids 232-356 modified (frame shift) (protein, listed as Homo sapiens)
# chain: SDRPRGRDPVNPEKLLVITVATAETEGYLRFLRSAEFFNYTVRTLGLGEEWRGGDVARTVGGGQKVRWLKKEMEKYADREDMIIMFVDSYDVILAGSPTELLKKFVQSGSRLLFSAESFCWPEWGLAEQYPEVGTGKRFLNSGGFIGFATTIHQIVRQWKYKDDDDDQLFYTRLYLDPGLREKLSLNLDHKSRIFQNLNGALDEVVLSLIGTVCVSGTWPTTRSPLWSMETVPLSCSSTTWETTSPMAGLLREAVASATRTGGHSRGGSLPPGCFWPCLWNSLLRFCPASCSGCYSWTIPPTGSPFSCTTTRSSMNPTSLTPGRSSRTTSQL
# Tests used:
# Assay type in all cases: biochemical
# [1] = tested on: hydroxylysyl residues in a calf skin gelatin substrate; assay: GT (galactosyltransferase) activity of recombinant proteins expressed in E. coli; settings: E. coli cell supernatant, FIG. 12
# From the text: The galactosyltransferase activity can be assayed as described in Myllylä et al. (1975). The method is based on the transfer of radioactively (tritium) labelled galactose from UDP-galactose to hydroxylysyl residues in calf skin gelatin substrate and on the specific assay of the product of the enzyme reaction after alkaline hydrolysis.
# [2] = tested on: galactosylhydroxylysyl residues in calf skin gelatin substrate; assay: GGT (glucosyltransferase) activity of recombinant proteins expressed in Sf9 insect cells; settings: for GGT activity in cell lysates: Sf9 cells, 72 hours after infection; for GGT activity, Dpm/plate: Sf9 cells transfected by LH3 constructs; for GGT activity, %: relative to nonmutated LH3 construct
# From the text: The glucosyltransferase activity can be assayed as described in Myllylä et al. (1975). The method is based on the transfer of radioactively (tritium) labelled glucose from UDP-glucose to galactosylhydroxylysyl residues in calf skin gelatin substrate and on the specific assay of the product of the enzyme reaction after alkaline hydrolysis.
# (§1) Commercially available baculovirus transfer vector pFastBacI in the BAC-TO-BAC™ expression system (Life technologies, Inc.) was modified to contain human LH1 signal peptide (Hautala et al., 1992) and His6 tag, and BamHI restriction site for insertion of the desired cDNA, nucleotides 289-2455 of LH3 cDNA (SEQ ID NO 6) (Valtavaara et al., 1998). The construct was confirmed by sequencing. The recombinant protein contains His tag at the amino-terminus after signal peptide cleavage. Insect cells were harvested 0-72 hours after infection and homogenized according to the protocol described earlier (Valtavaara et al., 1997).
# Human LH1 signal peptide and His6 tag was inserted to the cDNA constructs of LH1 and LH2. The baculovirus transfer vector pFastBacI was modified so that human LH1 signal sequence followed by nine nucleotides of the amino-terminal end was ligated to the His6 tag followed by nucleotides for BamHI restriction site. The human cDNA sequence (LH1 or LH2) (SEQ ID NO 21, 23 and 25) starting from the likely amino-terminal end of the molecule was ligated to the BamHI site of the construct. Two expression constructs were generated for LH2, LH2a and LH2b (SEQ ID NO 23 and 25), both of them covered the nucleotides from 76 to 2267 (Valtavaara et al., 1997). The LH2b construct contained also the alternatively spliced exon sequence (Valtavaara 1999; Yeowell and Walker, 1999) between nucleotides 1500 and 1501 (SEQ ID NO 25). The constructs were confirmed by sequencing. Insect cells were grown and homogenized as described above.
# (§2) LH activity was assayed by a method based on the hydroxylation-coupled decarboxylation of 2-oxo(1-^14C)glutarate (Kivirikko and Myllylä 1982), synthetic peptide […] was used as a substrate. GGT activity was assayed as described elsewhere (Myllylä et al. 1975). The method is based on the transfer of radioactively (tritium) labelled glucose from UDP-glucose to galactosylhydroxylysyl residues in calf skin gelatin substrate and on the specific assay of the product of the enzyme reaction after alkaline hydrolysis.
# [3] = tested on: synthetic peptide IKGIKGIKG; assay: LH activity of human LH isoforms expressed in E. coli; settings: E. coli expression system, data not shown
# From the text: (§3) The lysyl hydroxylase activity can be assayed by a method based on the hydroxylation-coupled decarboxylation of 2-oxo(1-^14C)glutarate (Kivirikko and Myllylä 1982), synthetic peptide […] was used as a substrate.
# PFastBacI constructs for human LH1, LH2a, LH2b and LH3 were cleaved with BamHI and Hind III restriction enzymes and coding regions were subcloned into same site in E. coli expression vector pQE30 containing (His)6 tag at the amino terminus. Insert for C. elegans LH (corresponding to amino acids 14-730 in cDNA) was generated by PCR and ligated into SacI-PstI site of pOE30 vector. Constructs were transformed into E. coli XL1-Blue strain. Cultures were grown to OD600 of 0.6 at 37° C. Protein expression was induced by adding 1 mM IPTG and incubation was proceed at 30° C. for 5 hours. Cells were harvested and stored at −20° C. For activity measurements cell pellet was suspended to lysis buffer (0.4 M NaCl, 0.5% Nonident and 20 mM Tris-HCl pH 7.8, at 20° C.) and incubated in the presence of lysozyme (50 μg/ml), DNAase (10 μg/ml) and RNAase (10 μg g/ml) at room temperature for 30 minutes. Lysis was completed by sonication. Cell debris was pelleted and supernatant was used in the measurements.
# [4] = tested on: hydroxylysyl residues in a calf skin gelatin substrate; assay: GT activity of recombinant proteins expressed with baculovirus vector in Sf9 cells; settings: baculovirus vector in insect cells, not shown
# Description: Baculovirus transfer vector pFastBacI in the BAC-TO-BAC™ expression system was used to produce LH3 protein in Sf9 cells. The cDNA construct is in Example 1. The recombinant protein contains the His tag at the amino terminus after signal peptide cleavage. The cells were homogenized as described elsewhere (Valtavaara et al. 1997).
# GT and GGT activities were measured by a method based on the transfer of radioactively (tritium)-labeled sugar from UDP-sugar to hydroxylysyl or galactosylhydroxylysyl residues in a calf skin gelatin substrate, respectively (Myllylä et al. 1975). The specific detection of the reaction products was performed after alkaline hydrolysis.
# [5] = tested on: synthetic peptide IKGIKGIKG; assay: LH (lysyl hydroxylase) activity of LH3 constructs expressed in Sf9 cells; settings: for LH3 activity, Dpm/plate: Sf9 cells transfected by LH3 constructs; for LH3 activity, %: relative to nonmutated LH3 construct
# From the text: as §3, §1, §2
Molecule,generation of GT activity [1],GGT activity in cell lysates [2],LH activity [3],generation of GT activity [4],"LH3 activity, Dpm/plate [5]","LH3 activity, % [5]","GGT activity, Dpm/plate [2]","GGT activity, % [2]"
B1,LH3 was the only one being able to generate GT activity,none of these recombinant proteins had detectable GGT activity,no LH activity can be found,did not generated GT activity,–,–,–,–
B2,–,–,–,–,<300 Dpm/plate,<5%,360000 Dpm/plate,47%
B3,LH3 was the only one being able to generate GT activity,none of these recombinant proteins had detectable GGT activity,no LH activity can be found,did not generated GT activity,–,–,–,–
B4,–,–,–,–,<300 Dpm/plate,<5%,180000 Dpm/plate,23%
B5,–,–,–,–,<300 Dpm/plate,<5%,650 Dpm/plate,0.1%

# Reference: patent US7951562B2, “Method for glycosylating hydroxylysine residues in polypeptides or peptides” (Oulun Yliopisto, priority 2000, dated 2011)
